{"source": "patent US20160102323", "about": "“A LAGLIDADG HOMING ENDONUCLEASE CLEAVING THE C-C CHEMOKINE RECEPTOR TYPE-5 (CCR5) GENE AND USES THEREOF” (CELLECTIS, published 2016)", "assay_in_all_cases": "flow; yeast surface display titration; unit as printed (uM)", "key": {"[1]": {"molecular_target": "T1, I-OnuI (wild type) (Ophiostoma novo-ulmi)", "T1 chain": "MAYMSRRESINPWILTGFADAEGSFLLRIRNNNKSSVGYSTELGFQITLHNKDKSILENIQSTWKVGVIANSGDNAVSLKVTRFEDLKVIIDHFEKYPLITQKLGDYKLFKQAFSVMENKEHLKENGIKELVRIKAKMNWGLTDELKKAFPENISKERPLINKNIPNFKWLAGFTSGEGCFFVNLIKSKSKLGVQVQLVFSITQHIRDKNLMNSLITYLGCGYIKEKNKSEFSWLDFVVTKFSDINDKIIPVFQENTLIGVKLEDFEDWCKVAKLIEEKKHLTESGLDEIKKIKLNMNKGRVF", "settings": "label: fluorescent dye", "protocol": "(§1) The LHEs containing the engineered DNA recognition interfaces for the CCR5_S02 (SEQ ID NO: 3) and CCR5_S08 (SEQ ID NO: 5) targets were tested for affinity, specificity, and toxicity characteristics. Affinity was tested by independently incubating yeast displaying the CCR5_S02_1F5 variant, (SEQ ID NO: 09 encoding SEQ ID NO: 10), and the CCR5_S08_1B6 variant (SEQ ID NO: 11 encoding SEQ ID NO: 12), with DNA substrates containing their target sequences at various concentrations. See FIG. 4 showing the affinity properties of these two variants relative to the wild-type I-OnuI protein. […] Specificity was tested by analyzing the relative ability of each LHE to cleave target sequences containing each of the three alternate DNA base pairs at each position along the substrate. See FIG. 5 illustrating the specificity profile of the CCR5_S02_1F5 and CCR5_S08_1B6 variants. […] Toxicity was analyzed by in vitro transcribing each LHE into mRNA and transfecting primary human T cells by electroporation, followed by flow cytometry analysis of the survival of the cells relative to transfection with a control mRNA encoding a blue fluorescent protein (BFP). See FIG. 6 showing flow cytometry analysis of primary human T cells after treatment with the CCR5_S02_1F5 and CCR5_S08_1B6 variants."}, "[2]": {"molecular_target": "T2, CCR5_S08_1B6 I-OnuI variant (artificial (I-OnuI derived))", "T2 chain": "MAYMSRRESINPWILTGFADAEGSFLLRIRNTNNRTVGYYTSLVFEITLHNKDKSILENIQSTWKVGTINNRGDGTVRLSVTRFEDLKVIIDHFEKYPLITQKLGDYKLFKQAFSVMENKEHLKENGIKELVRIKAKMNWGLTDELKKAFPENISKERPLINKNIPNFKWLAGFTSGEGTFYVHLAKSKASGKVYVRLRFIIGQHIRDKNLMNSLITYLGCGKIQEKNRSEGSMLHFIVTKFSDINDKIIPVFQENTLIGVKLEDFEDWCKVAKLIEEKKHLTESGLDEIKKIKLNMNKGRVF", "settings": "label: Alexa Fluor 647 / biotin in cleavage assay", "protocol": "as §1"}, "[3]": {"molecular_target": "T3, CCR5_S02_1F5 I-OnuI variant (artificial (I-OnuI derived))", "T3 chain": "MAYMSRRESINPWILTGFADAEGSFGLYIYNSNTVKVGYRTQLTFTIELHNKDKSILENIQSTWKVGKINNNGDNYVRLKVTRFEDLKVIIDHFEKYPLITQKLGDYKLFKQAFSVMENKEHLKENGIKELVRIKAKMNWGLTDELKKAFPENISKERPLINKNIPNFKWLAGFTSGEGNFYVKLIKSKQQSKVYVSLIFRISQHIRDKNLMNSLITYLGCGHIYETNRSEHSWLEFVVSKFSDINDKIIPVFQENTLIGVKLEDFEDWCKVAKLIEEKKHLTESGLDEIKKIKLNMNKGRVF", "settings": "label: Alexa Fluor 647 / biotin in cleavage assay", "protocol": "as §1"}}, "data": [{"binder": "I-OnuI native target (dsDNA) DNA 1: TTTCCACTTATTCAACCTTTTA DNA 2: TAAAAGGTTGAATAAGTGGAAA", "values": [{"measurement": "Kd", "setting": "[1]", "result": "~80", "unit": "µM"}]}, {"binder": "CCR5_S08 target (dsDNA) DNA 1: CTTCCAGGAATTCTTTGGCCTG DNA 2: CAGGCCAAAGAATTCCTGGAAG", "values": [{"measurement": "Kd", "setting": "[2]", "result": "~20", "unit": "µM"}]}, {"binder": "CCR5_S02 target (dsDNA) DNA 1: ATGAAGAAGATTCCAGAGAAGA DNA 2: TCTTCTCTGGAATCTTCTTCAT", "values": [{"measurement": "Kd", "setting": "[3]", "result": "~35", "unit": "µM"}]}]}
